T1: Ets-1ΔN331 (minimal ETS domain) (mouse (murine)?, UniProt P27577 331-440)
T1 sequence: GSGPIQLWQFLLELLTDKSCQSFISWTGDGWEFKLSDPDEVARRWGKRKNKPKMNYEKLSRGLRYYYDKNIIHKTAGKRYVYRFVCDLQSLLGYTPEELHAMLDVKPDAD

B1: SC1 hemi-methylated, forward (5'-GGAA-3' strand) (dsDNA)
DNA 1: CGGCCAAGCCGGAAGTGAGTGCC
DNA 2: GGCACTCACTTCCGGCTTGGCCG
modifications: 5-methyl-dC at strand 1 position 10 (CpG)
B2: SC1 unmethylated (dsDNA)
DNA 1: CGGCCAAGCCGGAAGTGAGTGCC
DNA 2: GGCACTCACTTCCGGCTTGGCCG

Key:
PU.1ΔN167 (ETS domain) = PU.1ΔN167 (ETS domain) (mouse (murine), UniProt P17433 167-272); experiment: competitive fluorescence anisotropy
[1] = molecular target: T1, Ets-1ΔN331 (minimal ETS domain); experiment: competitive fluorescence anisotropy

Row | Binder | Kd (PU.1ΔN167 (ETS domain)) [nM] | Kd [1] [nM]
1 | B1 | 1.5 ± 0.9 | 
2 | B2 | 0.32 ± 0.17 | 0.14 ± 0.03
